Experiment [1] addresses human/mouse 5T4 chimera aa173-420 (human; mouse) (UniProt Q13641). Nature of the experiment: flow cytometry, cells with 5T4 chimera; % positive cells over that of the best clone. (In general: A flow cytometer gives signals particle by particle.)
The target in experiment [2] is Chimeric OX40 construct 1545 (human; mouse) (UniProt P43489). Description: flow cytometry, 293-F cells transfected with the construct.
Experiment [3] concerns the target Chimeric OX40 construct 1544 (human; mouse) (UniProt P47741). Described as above.
The target in experiment [4] is Chimeric OX40 construct 1548 (human; mouse) (UniProt P43489). The experiment is described as above.
The target of experiment [5] is Chimeric OX40 construct 1549 (human; mouse) (UniProt P47741). The experiment is described as above.
For experiment [6], the target named is Chimeric OX40 construct 1547 (human; mouse) (UniProt P43489). The description is as above.
Experiment [7] concerns the target Chimeric OX40 construct 1546 (human; mouse) (UniProt P43489). Described as above.

Sequence of Chimeric OX40 construct 1548 (human; mouse) (P43489 other isoform, or with tags, fused parts or gaps mutant, form in doubt): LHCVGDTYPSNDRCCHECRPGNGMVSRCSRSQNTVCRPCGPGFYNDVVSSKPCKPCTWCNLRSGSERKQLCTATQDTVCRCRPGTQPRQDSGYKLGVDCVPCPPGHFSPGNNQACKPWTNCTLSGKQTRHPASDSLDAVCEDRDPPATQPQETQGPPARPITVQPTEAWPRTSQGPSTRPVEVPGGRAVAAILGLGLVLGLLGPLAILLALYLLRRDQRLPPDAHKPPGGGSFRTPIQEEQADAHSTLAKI
Sequence of Chimeric OX40 construct 1547 (human; mouse) (P43489 other isoform, or with tags, fused parts or gaps mutant, form in doubt): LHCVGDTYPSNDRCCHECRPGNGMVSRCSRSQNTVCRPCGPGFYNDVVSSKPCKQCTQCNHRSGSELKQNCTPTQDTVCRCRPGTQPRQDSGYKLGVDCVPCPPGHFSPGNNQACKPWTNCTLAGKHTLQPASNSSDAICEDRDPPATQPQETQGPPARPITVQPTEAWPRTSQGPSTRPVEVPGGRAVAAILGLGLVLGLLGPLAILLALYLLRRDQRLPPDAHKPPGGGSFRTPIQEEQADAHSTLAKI
Sequence of Chimeric OX40 construct 1545 (human; mouse) (P43489 other isoform, or with tags, fused parts or gaps mutant, form in doubt): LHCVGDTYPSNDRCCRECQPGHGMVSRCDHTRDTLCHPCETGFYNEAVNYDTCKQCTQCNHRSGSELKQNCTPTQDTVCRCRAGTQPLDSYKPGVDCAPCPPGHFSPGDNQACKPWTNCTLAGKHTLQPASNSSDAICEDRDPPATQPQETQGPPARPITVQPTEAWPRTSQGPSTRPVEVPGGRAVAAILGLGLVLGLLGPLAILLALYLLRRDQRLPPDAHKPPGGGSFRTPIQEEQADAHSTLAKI
Sequence of Chimeric OX40 construct 1544 (human; mouse) (P43489 other isoform, or with tags, fused parts or gaps mutant, form in doubt): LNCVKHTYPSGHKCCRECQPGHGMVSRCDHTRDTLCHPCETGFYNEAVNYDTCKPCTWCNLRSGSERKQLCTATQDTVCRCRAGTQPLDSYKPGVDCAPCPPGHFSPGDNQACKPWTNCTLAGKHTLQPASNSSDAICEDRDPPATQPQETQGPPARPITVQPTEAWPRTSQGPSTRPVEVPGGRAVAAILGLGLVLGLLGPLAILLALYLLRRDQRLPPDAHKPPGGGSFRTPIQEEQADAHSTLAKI
Sequence of Chimeric OX40 construct 1546 (human; mouse) (P43489 other isoform, or with tags, fused parts or gaps mutant, form in doubt): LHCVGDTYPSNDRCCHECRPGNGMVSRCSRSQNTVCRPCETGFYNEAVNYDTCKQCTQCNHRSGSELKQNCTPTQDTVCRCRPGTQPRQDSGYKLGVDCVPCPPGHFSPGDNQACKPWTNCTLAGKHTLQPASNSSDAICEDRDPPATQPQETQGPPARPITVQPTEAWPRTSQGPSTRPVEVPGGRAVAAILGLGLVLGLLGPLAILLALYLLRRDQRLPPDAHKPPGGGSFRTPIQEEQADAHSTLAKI
Sequence of human/mouse 5T4 chimera aa173-420 (human; mouse) (Q13641 other isoform, or with tags, fused parts or gaps mutant limits assumed, form in doubt): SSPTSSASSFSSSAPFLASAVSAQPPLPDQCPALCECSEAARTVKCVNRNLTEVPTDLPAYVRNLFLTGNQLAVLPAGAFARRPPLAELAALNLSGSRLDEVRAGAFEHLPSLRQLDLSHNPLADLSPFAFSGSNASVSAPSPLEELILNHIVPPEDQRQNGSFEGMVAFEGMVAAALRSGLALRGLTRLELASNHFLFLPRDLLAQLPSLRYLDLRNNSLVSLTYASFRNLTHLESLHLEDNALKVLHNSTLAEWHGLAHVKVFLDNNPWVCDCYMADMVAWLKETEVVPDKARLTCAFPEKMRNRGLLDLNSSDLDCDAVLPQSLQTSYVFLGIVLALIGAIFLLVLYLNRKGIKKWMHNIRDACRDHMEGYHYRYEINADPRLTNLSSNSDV

B1: 1206/1207 (antibody, V domains shown)
VH: EVQLLESGGGLVQPGGSLRLSCAASGFTFSGSSMSWVRQAPGKGLEWVSSIYYSGSGTYYADSVKGRFTISRDNSKNTLYLQMNSLRAEDTAVYYCARYGRNVHPYNLDYWGQGTLVTVSS
VL: DIQMTQSPSSLSASVGDRVTITCRASQSISSYLNWYQQKPGKAPKLLIYAASSLQSGVPSRFSGSGSGTDFTLTISSLQPEDFATYYCQQGYYYLPTFGQGTKLEIK
In the case of B1, the normalized % positive cells in experiment [1] amounted to 0.3.

B2: 1514/1515 (antibody, V domains shown)
VH: EVQLLESGGGLVQPGGSLRLSCAASGFTFGYYYMSWVRQAPGKGLEWVSGISSYGSYTYYADSVKGRFTISRDNSKNTLYLQMNSLRAEDTAVYYCARSGYSNWANSFDYWGQGTLVTVSS
VL: DIQMTQSPSSLSASVGDRVTITCRASQSISSYLNWYQQKPGKAPKLLIYAASSLQSGVPSRFSGSGSGTDFTLTISSLQPEDFATYYCQQGDYTLFTFGQGTKLEIK
B2: the relative MFI (fold over isotype control) in experiment [2] worked out at 1.2; in experiment [3] it was 11.6; in experiment [4] it was 17.2; in experiment [5], 10.6; in experiment [6], 1.1; in experiment [7] it was 0.9.

B3: 1212/1213 (antibody, IgG1, V domains shown)
VH: EVQLLESGGGLVQPGGSLRLSCAASGFTFSSYAMSWVRQAPGKGLEWVSYISSYGGYTSYADSVKGRFTISRDNSKNTLYLQMNSLRAEDTAVYYCARYHSGVLDYWGQGTLVTVSS
VL: DIQMTQSPSSLSASVGDRVTITCRASQSISSYLNWYQQKPGKAPKLLIYAASSLQSGVPSRFSGSGSGTDFTLTISSLQPEDFATYYCQQYYYHYLLTFGQGTKLEIK
For the molecule B3, the normalized % positive cells in experiment [1] is -0.01.

B4: 1166/1167 (antibody, V domains shown)
VH: EVQLLESGGGLVQPGGSLRLSCAASGFTFGGYYMSWVRQAPGKGLEWVSAISGSGGSTYYADSVKGRFTISRDNSKNTLYLQMNSLRAEDTAVYYCARYDYASMDYWGQGTLVTVSS
VL: DIQMTQSPSSLSASVGDRVTITCRASQSISSYLNWYQQKPGKAPKLLIYAASSLQSGVPSRFSGSGSGTDFTLTISSLQPEDFATYYCQQYYWYGLSTFGQGTKLEIK
In the case of B4, the relative MFI (fold over isotype control) was found to be 1 in experiment [2]; 14.2 in experiment [3]; 15.8 in experiment [4]; 11.3 in experiment [5]; 15.2 in experiment [6]; 0.8 in experiment [7].

B5: 1524/1525 (antibody, V domains shown)
VH: EVQLLESGGGLVQPGGSLRLSCAASGFTFGSYYMGWVRQAPGKGLEWVSSIGSYYGYTYYADSVKGRFTISRDNSKNTLYLQMNSLRAEDTAVYYCARHDYGALDYWGQGTLVTVSS
VL: DIQMTQSPSSLSASVGDRVTITCRASQSISSYLNWYQQKPGKAPKLLIYAASSLQSGVPSRFSGSGSGTDFTLTISSLQPEDFATYYCQQYGPSGLFTFGQGTKLEIK
Consider B5, for which the relative MFI (fold over isotype control) came out at 0.9 in experiment [2]; 1.5 in experiment [3]; 15.4 in experiment [4]; 11.2 in experiment [5]; 1 in experiment [6]; 0.9 in experiment [7].

B6: 1526/1527 (antibody, V domains shown)
VH: EVQLLESGGGLVQPGGSLRLSCAASGFTFSGYSMYWVRQAPGKGLEWVSGIGYSGYGTYYADSVKGRFTISRDNSKNTLYLQMNSLRAEDTAVYYCARYYFHDYAAYSLDYWGQGTLVTVSS
VL: DIQMTQSPSSLSASVGDRVTITCRASQSISSYLNWYQQKPGKAPKLLIYAASSLQSGVPSRFSGSGSGTDFTLTISSLQPEDFATYYCQQYGSDSLLTFGQGTKLEIK
Consider B6, for which the relative MFI (fold over isotype control) in experiment [2] amounted to 1.3; in experiment [3], 1.1; in experiment [4], 12.7; in experiment [5] it was 8.5; in experiment [6], 1; in experiment [7] it was 0.9.

Values taken from patent US20190161555A1.
